This is an account of results in patent US20240052064A1 (Bristol-Myers Squibb, published 2024).

Assay [1] addresses T1, Human BCMA, TPP208 (human, UniProt Q02223 1-54, limits assumed).
T1 construct: also called Antigen 1
T1 sequence (looked up): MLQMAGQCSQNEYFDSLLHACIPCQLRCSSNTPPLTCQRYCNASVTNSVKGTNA
Kind of assay: SPR (Biacore T200), single-cycle kinetics, antibody captured on anti-human IgG, antigen injected; sensorgram of sample stored at pH 4, 40 C compared with the non-stressed standard. Here is the method: (§1) SPR experiments were performed using a Biacore T200 system (GE Healthcare, Uppsala, Sweden) with analysis and sample compartment temperatures set at 25° C. and 7° C. respectively.
(§2) Anti-Human IgG (from anti-human IgG Capture Kit) was amine coupled to the surface of a CM5 chip according to the manufacturer's instructions. Molecule bispecific antibodies diluted to 1 μg/mL in running buffer were captured on the chip surface in a 60 s injection. Following the single-cycle kinetics procedure, antigen was next injected five times (30 s per injection) at incrementally increasing concentrations at a flow rate of 30 μL/min. Antigen concentrations ranged from 0.08 to 50 nM for BCMA and between 12.7 to 1000 nM for CD3. A 300 s dissociation time was added after the last antigen injection. Following each experiment, all flow cells were regenerated using a 30 s injection of 3M MgCl₂.
(§3) Prior to analysis, data were double referenced by first subtracting data from a reference flow cell and then subtracting a blank cycle where buffer was injected instead of antigen. The sensorgram comparison analysis was implemented using a Biacore T200 (software version 3.0). All data were normalized with respect to the response where 100% reflects the maximum binding obtained during injection and 0% reflects the baseline. Average and ±3 standard deviation (SD) sensorgrams were calculated from ten or more independent sensorgrams of each molecule's non-stressed material (standard). For quantitation of binding similarities of the stressed samples against the corresponding non-stressed standard, sample sensorgrams were co-evaluated with the sensorgrams of the standard. The degree of similarity was calculated based on how many sample data points fell inside or outside the ±3 standard deviation limits according to Equation 2, where SSQ is the sum of squares (Karlsson, R, Pol, E., and Frostell, A. (2016); Analytical Biochemistry 502, 53-63).
In general terms: SPR reads the build-up and loss of mass on a sensor chip optically.

The target in assay [2] is T2, Human CD3ED, TPP401 (human, UniProt P07766 23-126; P04234 22-105).
T2 construct: 'CD3ED' is read here as the CD3 epsilon/delta pair; also called Antigen 2
T2 sequence (P07766 23-126, chain 1 of 2): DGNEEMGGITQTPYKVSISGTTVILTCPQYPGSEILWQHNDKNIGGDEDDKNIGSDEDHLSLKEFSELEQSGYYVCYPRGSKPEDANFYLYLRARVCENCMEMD
T2 sequence (P04234 22-105, chain 2 of 2): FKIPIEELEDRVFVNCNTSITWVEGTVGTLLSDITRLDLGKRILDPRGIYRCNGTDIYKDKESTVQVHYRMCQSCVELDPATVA
The description is as above. Here is the method:
as §1, §2, §3

The target in assay [3] is T1, Human BCMA, TPP208. Kind of assay: SPR (Biacore T200), single-cycle kinetics, antibody captured on anti-human IgG, antigen injected; sensorgram of sample stored at pH 6, 40 C compared with the non-stressed standard. Here is the method: as §1, §2, §3
The target of assay [4] is T2, Human CD3ED, TPP401. Described as above. The protocol: as §1, §2, §3
Assay [5] addresses T1, Human BCMA, TPP208. Kind of assay: SPR (Biacore T200), single-cycle kinetics, antibody captured on anti-human IgG, antigen injected; sensorgram of sample stored at pH 8, 40 C compared with the non-stressed standard. The protocol: as §1, §2, §3
For assay [6], the target named is T2, Human CD3ED, TPP401. The assay is described as above. The protocol:
as §1, §2, §3

Assay [7] concerns the target T1, Human BCMA, TPP208. Kind of assay: SPR (Biacore T200), single-cycle kinetics, antibody captured on anti-human IgG, antigen injected; sensorgram of sample stored at pH 6 with tert-butyl peroxide, 40 C compared with the non-stressed standard. Here is the method:
as §1, §2, §3

The target of assay [8] is T2, Human CD3ED, TPP401. Described as above. Here is the method:
as §1, §2, §3

B1: 83A10-TCBcv (bispecific antibody, human IgG1, kappa, L234A L235A)
heavy 1: not shown
heavy 2: not shown
light 1: not shown
light 2: EVQLLESGGGLVQPGGSLRLSCAASGFTFSTYAMNWVRQAPGKGLEWVSRIRSKYNNYATYYADSVKGRFTISRDDSKNTLYLQMNSLRAEDTAVYYCVRHGNFGNSYVSWFAYWGQGTLVTVSSASVAAPSVFIFPPSDEQLKSGTASVVCLLNNFYPREAKVQWKVDNALQSGNSQESVTEQDSKDSTYSLSSTLTLSKADYEKHKVYACEVTHQGLSSPVTKSFNRGEC
As for B1, the “pH 4 SPR % similarity-BCMA” value in the assay with Human BCMA, TPP208 [1] is 99.4%. Also, the “pH 4 SPR % similarity-CD3” value in the assay with Human CD3ED, TPP401 [2] came out at 100%. In addition, in the assay with Human BCMA, TPP208 [3], the “pH 6 SPR % similarity-BCMA” value was determined as 100%. Moreover, the “pH 6 SPR % similarity-CD3” value with Human CD3ED, TPP401 [4] stood at 99.9%. In addition, the “pH 8 SPR % similarity-BCMA” value with Human BCMA, TPP208 [5] is 90.8%. Moreover, the “pH 8 SPR % similarity-CD3” value with Human CD3ED, TPP401 [6] is 57.5%. For the same molecule, the “pH 6-TBP SPR % similarity-BCMA” value in the assay with Human BCMA, TPP208 [7] turned out to be 72%. Besides, in the assay with Human CD3ED, TPP401 [8], the “pH 6-TBP SPR % similarity-CD3” value amounted to 59.7%.

B2: 22-TCBcv (bispecific antibody, human IgG1, kappa, L234A L235A)
heavy 1: not shown
heavy 2: EVQLLESGGGLVQPGGSLRLSCAASGFTFSDNAMGWVRQAPGKGLEWVSAISGPGSSTYYADSVKGRFTISRDNSKNTLYLQMNSLRAEDTAVYYCAKVLGWFDYWGQGTLVTVSSASTKGPSVFPLAPSSKSTSGGTAALGCLVEDYFPEPVTVSWNSGALTSGVHTFPAVLQSSGLYSLSSVVTVPSSSLGTQTYICNVNHKPSNTKVDEKVEPKSCDKTHTCPPCPAPEAAGGPSVFLFPPKPKDTLMISRTPEVTCVVVDVSHEDPEVKFNWYVDGVEVHNAKTKPREEQYNSTYRVVSVLTVLHQDWLNGKEYKCKVSNKALGAPIEKTISKAKGQPREPQVCTLPPSRDELTKNQVSLSCAVKGFYPSDIAVEWESNGQPENNYKTTPPVLDSDGSFFLVSKLTVDKSRWQQGNVFSCSVMHEALHNHYTQKSLSLSPGK
light 1: EIVLTQSPGTLSLSPGERATLSCRASQSVSSYYLAWYQQKPGQAPRLLISGAGSRATGIPDRFSGSGSGTDFTLTISRLEPEDFAVYYCQQYGYPPDFTFGQGTKVEIKRTVAAPSVFIFPPSDRKLKSGTASVVCLLNNFYPREAKVQWKVDNALQSGNSQESVTEQDSKDSTYSLSSTLTLSKADYEKHKVYACEVTHQGLSSPVTKSFNRGEC
light 2: EVQLLESGGGLVQPGGSLRLSCAASGFTFSTYAMNWVRQAPGKGLEWVSRIRSKYNNYATYYADSVKGRFTISRDDSKNTLYLQMNSLRAEDTAVYYCVRHGNFGNSYVSWFAYWGQGTLVTVSSASVAAPSVFIFPPSDEQLKSGTASVVCLLNNFYPREAKVQWKVDNALQSGNSQESVTEQDSKDSTYSLSSTLTLSKADYEKHKVYACEVTHQGLSSPVTKSFNRGEC
For the molecule B2, the “pH 4 SPR % similarity-BCMA” value with Human BCMA, TPP208 [1] is 84.8%. Besides, the “pH 4 SPR % similarity-CD3” value with Human CD3ED, TPP401 [2] amounted to 99.6%. The “pH 6 SPR % similarity-BCMA” value with Human BCMA, TPP208 [3] amounted to 99.8%. Also, the “pH 6 SPR % similarity-CD3” value with Human CD3ED, TPP401 [4] is 99.5%. In addition, the “pH 8 SPR % similarity-BCMA” value with Human BCMA, TPP208 [5] worked out at 95.8%. Also, in the assay with Human CD3ED, TPP401 [6], the “pH 8 SPR % similarity-CD3” value worked out at 59.5%. Further, the “pH 6-TBP SPR % similarity-BCMA” value in the assay with Human BCMA, TPP208 [7] is 71.9%. For the same molecule, in the assay with Human CD3ED, TPP401 [8], the “pH 6-TBP SPR % similarity-CD3” value came out at 58.5%.
